Values of other authors as cited in paper PMC4454200.

Biological target: Myosin-5a GTD (Mus musculus) (UniProt Q99104)
Sequence (Q99104 1469-1853): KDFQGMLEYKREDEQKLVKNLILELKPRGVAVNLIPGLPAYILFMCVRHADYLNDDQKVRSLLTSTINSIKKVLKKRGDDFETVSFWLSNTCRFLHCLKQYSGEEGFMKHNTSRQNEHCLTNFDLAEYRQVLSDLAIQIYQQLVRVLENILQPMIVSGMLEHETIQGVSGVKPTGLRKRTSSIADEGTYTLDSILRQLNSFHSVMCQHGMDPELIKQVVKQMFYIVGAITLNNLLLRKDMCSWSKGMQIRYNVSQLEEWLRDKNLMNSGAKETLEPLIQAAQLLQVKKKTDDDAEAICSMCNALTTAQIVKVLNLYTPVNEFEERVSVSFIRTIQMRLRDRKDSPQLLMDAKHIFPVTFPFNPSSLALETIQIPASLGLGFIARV

Melanophilin GTBDP, sequence (Q91V27 176-201): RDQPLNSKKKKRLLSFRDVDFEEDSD

For “Melanophilin GTBDP (from UniProt Q91V27)”, the Kd is listed as 500 nM.
